The target in assay [1] is T1, native mouse MET on living mouse cells (mouse, UniProt P16056 25-1379).
T1 construct: whole, on cells; also called Mouse cells (MLP29)
Description: flow cytometry, MLP29 cells. The procedure:
(§1) We also analysed whether chimeric anti-MET antibodies bound to native human and mouse MET in living cells. […] Antibody binding to cells was analysed by flow cytometry using phycoerythrin-conjugated anti-human IgG1 antibodies (eBioscience) and a CyAn ADP analyser (Beckman Coulter). As a positive control for human MET binding, we used a commercial mouse anti-human MET antibody (R&D Systems) and phycoerythrin-conjugated anti-mouse IgG1 antibodies (eBioscience). As a positive control for mouse MET binding we used a commercial goat anti-mouse MET antibody (R&D Systems) and phycoerythrin-conjugated anti-goat IgG1 antibodies (eBioscience). […] Consistent with the data obtained in ELISA, maximal binding (EMAX) varied depending on antibody, but was similar in human and mouse cells.
In general terms: Flow cytometry measures light scatter and fluorescence of single cells or particles in a stream.

For assay [2], the target named is T1, native mouse MET on living mouse cells. Description: cell-based or functional assay.
Assay [3] deals with T2, native human MET on living human cells (human, UniProt P08581 25-1390). In words: cell-based or functional assay.
Assay [4] has as its target T1, native mouse MET on living mouse cells. In words: cell-based or functional assay. This is another data set of the same source.
Assay [5] has as its target T2, native human MET on living human cells. In words: cell-based or functional assay. The source holds these as a separate data set.
The target of assay [6] is T3, mouse MET-Fc chimeric protein (R&D Systems) (mouse, UniProt P16056 25-929, limits assumed).
T3 construct: bought (R&D Systems); also called mMET; not shown: Fc
In words: competition ELISA, mMET-Fc in solid phase, competitor 0.3 nM biotinylated mHGF. As for the experimental part: (§2) To investigate along this line, we tested the competition between mAbs and HGF by ELISA. Recombinant human and mouse HGF (R&D Systems) were biotinylated at the N-terminus using NHS-LC-biotin (Thermo Scientific). MET-Fc protein, either human or mouse (R&D Systems), was immobilized in solid phase and then exposed to 0.3 nM biotinylated HGF, either human or mouse, in the presence of increasing concentrations of antibodies (0-120 nM).
(§3) A MET-Fc chimeric protein (either human or mouse) was immobilized in solid phase and exposed to a fixed concentration of biotinylated HGF (either human or mouse), in the presence of increasing concentrations of antibodies. […] Antibody-HGF competition is expressed as IC₅₀ (the concentration that achieves 50% competition) and IMAX (the maximum % competition reached at saturation).
(In an ELISA, binding on a coated surface is turned into a signal by an enzyme label.)

Assay [7] addresses T4, human MET-Fc chimeric protein (R&D Systems) (human, UniProt P08581 25-932).
T4 construct: extracellular domain; bought (R&D Systems); also called hMET; not shown: Fc portion of human IgG1
Description: competition ELISA, hMET-Fc in solid phase, competitor 0.3 nM biotinylated hHGF. The procedure:
as §2, §3

The target of assay [8] is T2, native human MET on living human cells. In words: flow cytometry, A549 cells. The procedure: as §1
For assay [9], the target named is T5, human MET extracellular domain (ECD) (human, UniProt P08581 25-932).
T5 construct: range 1-932; recombinant ECD; also called hMET; human MET ECD
Description: ELISA, periplasmic Fab on MET ECD. As for the experimental part: Fab-expressing phages from the libraries described above were produced according to standard phage display protocols. For selection, phages were first adsorbed to immobilized recombinant human MET ECD, washed, and then eluted using trypsin. After two cycles of selection with human MET ECD, two other cycles were performed in the same fashion using mouse MET ECD. In parallel, we also selected phages alternating a human MET ECD cycle with a mouse MET ECD cycle, for a total of four cycles. Phages selected by the two approaches were pooled together and then used to infect TG1 E. coli. Individual colonies were isolated and secretion of Fabs was induced using IPTG (Fermentas). The Fab-containing periplasmic fraction of bacteria was collected and tested for its ability to bind human and mouse MET ECD by Surface Plasmon Resonance (SPR). Human or mouse MET ECD was immobilized on a CM-5 chip using amine coupling in sodium acetate buffer (GE Healthcare). The Fab-containing periplasmic extracts were loaded into a BIACORE 3000 apparatus (GE Healthcare) with a flow rate of 30 μl/min. The Fab off-rates (koff) were measured over a two minute period. Binding of Fabs to human and mouse MET was further characterized by ELISA using MET ECD in solid phase and periplasmic crude extract in solution.
TABLE 7 Fabs binding to both human MET (hMET) and mouse MET (mMET). Fabs are grouped in families based on their VH CDR3 sequence. Binding of Fabs to human and mouse MET ECD was determined by Surface Plasmon Resonance (SPR) and by ELISA. SPR values represent the koff (s⁻¹). ELISA values represent the Optical Density (OD) at 450 nm (AU, arbitrary units). Both SPR and ELISA were performed using crude periplasmic extracts. Fab concentration in the extract was not determined. Values are the mean of three independent measurements.

T2 sequence (P08581 25-1390): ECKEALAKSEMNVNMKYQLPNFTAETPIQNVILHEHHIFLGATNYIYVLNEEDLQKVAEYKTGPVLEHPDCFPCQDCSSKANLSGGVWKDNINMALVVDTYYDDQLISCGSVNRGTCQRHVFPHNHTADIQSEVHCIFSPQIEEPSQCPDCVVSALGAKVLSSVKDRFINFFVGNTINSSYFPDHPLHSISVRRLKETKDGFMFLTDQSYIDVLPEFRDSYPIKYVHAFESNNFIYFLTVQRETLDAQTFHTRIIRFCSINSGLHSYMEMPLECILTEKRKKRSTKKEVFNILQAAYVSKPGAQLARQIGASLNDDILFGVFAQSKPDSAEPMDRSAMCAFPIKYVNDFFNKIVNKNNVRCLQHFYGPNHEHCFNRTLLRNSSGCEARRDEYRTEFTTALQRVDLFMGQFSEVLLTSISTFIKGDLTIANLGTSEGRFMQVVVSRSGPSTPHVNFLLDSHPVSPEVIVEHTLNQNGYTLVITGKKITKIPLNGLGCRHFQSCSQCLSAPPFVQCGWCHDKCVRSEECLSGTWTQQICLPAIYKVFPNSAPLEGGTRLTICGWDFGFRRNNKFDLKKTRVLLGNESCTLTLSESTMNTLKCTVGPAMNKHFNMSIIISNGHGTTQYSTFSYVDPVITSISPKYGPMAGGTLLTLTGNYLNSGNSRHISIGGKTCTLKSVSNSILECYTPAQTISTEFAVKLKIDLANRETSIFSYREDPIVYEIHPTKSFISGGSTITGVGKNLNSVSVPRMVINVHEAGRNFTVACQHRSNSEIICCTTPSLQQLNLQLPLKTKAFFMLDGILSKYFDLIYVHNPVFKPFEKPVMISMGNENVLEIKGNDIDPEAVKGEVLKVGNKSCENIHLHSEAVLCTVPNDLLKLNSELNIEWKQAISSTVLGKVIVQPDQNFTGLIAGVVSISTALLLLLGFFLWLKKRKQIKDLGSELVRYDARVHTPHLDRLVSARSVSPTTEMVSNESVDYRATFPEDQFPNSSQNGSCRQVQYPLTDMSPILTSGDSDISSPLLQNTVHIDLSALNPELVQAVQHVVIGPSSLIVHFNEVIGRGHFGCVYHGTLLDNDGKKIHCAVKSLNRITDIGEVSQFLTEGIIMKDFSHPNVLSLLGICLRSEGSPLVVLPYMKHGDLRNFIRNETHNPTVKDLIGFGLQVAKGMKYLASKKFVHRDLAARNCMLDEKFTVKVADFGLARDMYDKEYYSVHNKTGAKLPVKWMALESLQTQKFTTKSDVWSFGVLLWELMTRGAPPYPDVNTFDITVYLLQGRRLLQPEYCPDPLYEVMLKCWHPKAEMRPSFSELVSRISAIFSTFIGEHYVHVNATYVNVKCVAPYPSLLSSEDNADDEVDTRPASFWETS
T4 sequence (P08581 25-932, change not shown): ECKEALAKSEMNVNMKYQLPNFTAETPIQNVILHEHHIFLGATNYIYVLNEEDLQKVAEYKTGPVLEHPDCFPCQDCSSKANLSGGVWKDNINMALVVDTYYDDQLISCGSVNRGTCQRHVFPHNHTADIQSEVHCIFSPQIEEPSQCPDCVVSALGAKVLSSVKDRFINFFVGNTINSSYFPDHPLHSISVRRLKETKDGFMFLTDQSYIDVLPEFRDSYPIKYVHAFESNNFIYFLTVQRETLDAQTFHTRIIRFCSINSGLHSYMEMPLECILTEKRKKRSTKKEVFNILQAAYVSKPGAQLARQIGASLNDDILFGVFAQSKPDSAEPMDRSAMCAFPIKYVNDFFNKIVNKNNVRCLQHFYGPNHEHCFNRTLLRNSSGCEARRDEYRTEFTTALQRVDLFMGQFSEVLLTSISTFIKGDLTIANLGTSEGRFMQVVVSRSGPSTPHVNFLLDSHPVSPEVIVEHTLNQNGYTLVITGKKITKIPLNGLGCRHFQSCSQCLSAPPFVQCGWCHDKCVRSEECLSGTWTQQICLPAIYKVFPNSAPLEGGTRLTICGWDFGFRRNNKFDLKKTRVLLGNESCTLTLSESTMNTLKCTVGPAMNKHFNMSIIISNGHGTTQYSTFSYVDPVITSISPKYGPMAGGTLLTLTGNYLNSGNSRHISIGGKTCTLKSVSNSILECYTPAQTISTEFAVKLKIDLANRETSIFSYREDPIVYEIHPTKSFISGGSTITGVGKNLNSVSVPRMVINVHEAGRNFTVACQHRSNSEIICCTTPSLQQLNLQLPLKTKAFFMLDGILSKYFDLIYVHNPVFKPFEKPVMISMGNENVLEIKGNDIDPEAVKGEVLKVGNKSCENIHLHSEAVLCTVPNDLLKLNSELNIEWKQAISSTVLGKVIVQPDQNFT
T5 sequence (P08581 25-932 limits assumed, form in doubt): as the sequence (P08581 25-932, change not shown) above

B1: chimeric llama-human IgG1 mAb 71G12 (antibody, V domains shown)
VH: QVQLQESGGDLVQPGGSLRVSCVVSGFTFSRYYMSWVRQAPGKGLEWVSSIDSYGYSTYYTDSVKGRFTISRDNAKNTLYLQMNSLKPEDTALYYCARAKTTWSYDYWGQGTQVTVSS
VL: EIVLTQSPSSVTASVGGKVTINCKSSQSVFIASNQKTYLNWYQQRPGQSPRLVISYASTRESGIPDRFSGSGSTTDFTLTISSVQPEDAAVYYCQQAYSHPTFGQGTKVELK
As to B1, the “EMAX (% relative to control)” value in [1] is 121%. Besides, in assay [2], the “cell scattering score, MLP29, 0.001 nM” value was 0 score 0-4; the “cell scattering score, MLP29, 0.004 nM” value was 0 score 0-4; the “cell scattering score, MLP29, 0.012 nM” value came to 0 score 0-4; the “cell scattering score, MLP29, 0.037 nM” value came out at 0 score 0-4. In addition, in [2], the “cell scattering score, MLP29, 0.111 nM” value stood at 0 score 0-4; the “cell scattering score, MLP29, 0.333 nM” value was determined as 1 score 0-4; the “cell scattering score, MLP29, 1.000 nM” value amounted to 2 score 0-4; the “cell scattering score, MLP29, 3.000 nM” value came out at 2 score 0-4. In addition, in assay [2], the “cell scattering score, MLP29, 9.000 nM” value is 3 score 0-4. Also, in assay [3], the “cell scattering score, HPAF-II, 0.001 nM” value is 0 score 0-4; the “cell scattering score, HPAF-II, 0.004 nM” value amounted to 0 score 0-4; the “cell scattering score, HPAF-II, 0.012 nM” value was determined as 0 score 0-4; the “cell scattering score, HPAF-II, 0.037 nM” value stood at 0 score 0-4. In assay [3], the “cell scattering score, HPAF-II, 0.111 nM” value was 0 score 0-4; the “cell scattering score, HPAF-II, 0.333 nM” value came out at 1 score 0-4; the “cell scattering score, HPAF-II, 1.000 nM” value came out at 2 score 0-4; the “cell scattering score, HPAF-II, 3.000 nM” value worked out at 2 score 0-4. Moreover, the “cell scattering score, HPAF-II, 9.000 nM” value in assay [3] is 3 score 0-4. For the same molecule, in [4], the “protection from staurosporine, viability EC50, MLP29” value (shortened to “protection … viability EC50, MLP29”) is over 32 nM and the “protection from staurosporine, viability EMAX, MLP29” value (“protection … viability EMAX, MLP29” below) came out at 39.7%. Further, in assay [5], the “protection from staurosporine, viability EC50, MCF10A” value is over 32 nM and the “protection from staurosporine, viability EMAX, MCF10A” value was 39.4%. Further, the “IMAX (maximum % competition)” value in assay [6] was 50.7%. In assay [7], the “IMAX (maximum % competition)” value stood at 51.4%. For the same molecule, the “EMAX (% relative to control)” value in assay [8] was 110%.

B2: Fab 71G12 (Fab, V domains shown)
VH: QVQLQESGGDLVQPGGSLRVSCVVSGFTFSRYYMSWVRQAPGKGLEWVSSIDSYGYSTYYTDSVKGRFTISRDNAKNTLYLQMNSLKPEDTALYYCARAKTTWSYDYWGQGTQVTVSS
VL: EIVLTQSPSSVTASVGGKVTINCKSSQSVFIASNQKTYLNWYQQRPGQSPRLVISYASTRESGIPDRFSGSGSTTDFTLTISSVQPEDAAVYYCQQAYSHPTFGQGTKVELK
notes: llama Fab (VH-CH1, kappa VL-CL) with MYC flag, crude periplasmic extract
Regarding B2, the “ELISA OD450” value in assay [9] came out at 0.45 AU.

B3: chimeric llama-human IgG1 mAb 76G7 (antibody, V domains shown)
VH: QVQLVESGGNLVQPGGSLRLSCAASGFTFSNYYMSWVRQAPGKGLEWVSDIYSDGSTTWYSDSVKGRFTISRDNAKNTLSLQMNSLKSEDTAVYYCARVKIYPGGYDAWGQGTQVTVSS
VL: QAGLTQPPSVSGSPGKTVTISCAGNSSDVGYGNYVSWYQQFPGMAPKLLIYLVNKRASGITDRFSGSKSGNTASLTISGLQSEDEADYYCASYTGSNNIVFGGGTHLTVL
In the case of B3, the “EMAX (% relative to control)” value in assay [1] was determined as 115%. Also, in assay [2], the “cell scattering score, MLP29, 0.001 nM” value is 0 score 0-4; the “cell scattering score, MLP29, 0.004 nM” value was 0 score 0-4; the “cell scattering score, MLP29, 0.012 nM” value came out at 0 score 0-4; the “cell scattering score, MLP29, 0.037 nM” value stood at 0 score 0-4. Besides, in [2], the “cell scattering score, MLP29, 0.111 nM” value was 0 score 0-4; the “cell scattering score, MLP29, 0.333 nM” value amounted to 0 score 0-4; the “cell scattering score, MLP29, 1.000 nM” value turned out to be 1 score 0-4; the “cell scattering score, MLP29, 3.000 nM” value is 2 score 0-4. For the same molecule, in assay [2], the “cell scattering score, MLP29, 9.000 nM” value worked out at 3 score 0-4. Moreover, in assay [3], the “cell scattering score, HPAF-II, 0.001 nM” value is 0 score 0-4; the “cell scattering score, HPAF-II, 0.004 nM” value turned out to be 0 score 0-4; the “cell scattering score, HPAF-II, 0.012 nM” value was found to be 0 score 0-4; the “cell scattering score, HPAF-II, 0.037 nM” value worked out at 0 score 0-4. Moreover, in [3], the “cell scattering score, HPAF-II, 0.111 nM” value turned out to be 0 score 0-4; the “cell scattering score, HPAF-II, 0.333 nM” value turned out to be 0 score 0-4; the “cell scattering score, HPAF-II, 1.000 nM” value amounted to 1 score 0-4; the “cell scattering score, HPAF-II, 3.000 nM” value was 2 score 0-4. In [3], the “cell scattering score, HPAF-II, 9.000 nM” value is 3 score 0-4. In [4], the “protection … viability EC50, MLP29” value came to 30.1 nM and the “protection … viability EMAX, MLP29” value was found to be 50.2%. Also, in assay [5], the “protection from staurosporine, viability EC50, MCF10A” value was 25.4 nM and the “protection from staurosporine, viability EMAX, MCF10A” value came out at 51.9%. The “IMAX (maximum % competition)” value in [6] came out at 62.5%. In addition, in assay [7], the “IMAX (maximum % competition)” value worked out at 69.4%. The “EMAX (% relative to control)” value in assay [8] was determined as 121%.

B4: recombinant mouse HGF (R&D Systems) (ligand, UniProt Q08048 33-728, looked up)
chain: QKKRRNTLHEFKKSAKTTLTKEDPLLKIKTKKVNSADECANRCIRNRGFTFTCKAFVFDKSRKRCYWYPFNSMSSGVKKGFGHEFDLYENKDYIRNCIIGKGGSYKGTVSITKSGIKCQPWNSMIPHEHSFLPSSYRGKDLQENYCRNPRGEEGGPWCFTSNPEVRYEVCDIPQCSEVECMTCNGESYRGPMDHTESGKTCQRWDQQTPHRHKFLPERYPDKGFDDNYCRNPDGKPRPWCYTLDPDTPWEYCAIKTCAHSAVNETDVPMETTECIQGQGEGYRGTSNTIWNGIPCQRWDSQYPHKHDITPENFKCKDLRENYCRNPDGAESPWCFTTDPNIRVGYCSQIPKCDVSSGQDCYRGNGKNYMGNLSKTRSGLTCSMWDKNMEDLHRHIFWEPDASKLNKNYCRNPDDDAHGPWCYTGNPLIPWDYCPISRCEGDTTPTIVNLDHPVISCAKTKQLRVVNGIPTQTTVGWMVSLKYRNKHICGGSLIKESWVLTARQCFPARNKDLKDYEAWLGIHDVHERGEEKRKQILNISQLVYGPEGSDLVLLKLARPAILDNFVSTIDLPSYGCTIPEKTTCSIYGWGYTGLINADGLLRVAHLYIMGNEKCSQHHQGKVTLNESELCAGAEKIGSGPCEGDYGGPLICEQHKMRMVLGVIVPGRGCAIPNRPGIFVRVAYYAKWIHKVILTYKL
modifications: biotinylated at the N-terminus using NHS-LC-biotin in the competition ELISA only
Turning to B4, in assay [2], the “cell scattering score, MLP29, 0.001 nM” value was 0 score 0-4; the “cell scattering score, MLP29, 0.004 nM” value was determined as 1 score 0-4; the “cell scattering score, MLP29, 0.012 nM” value was 2 score 0-4; the “cell scattering score, MLP29, 0.037 nM” value is 3 score 0-4. In assay [2], the “cell scattering score, MLP29, 0.111 nM” value was 4 score 0-4; the “cell scattering score, MLP29, 0.333 nM” value is 4 score 0-4; the “cell scattering score, MLP29, 1.000 nM” value came to 4 score 0-4; the “cell scattering score, MLP29, 3.000 nM” value is 4 score 0-4. Moreover, the “cell scattering score, MLP29, 9.000 nM” value in assay [2] amounted to 4 score 0-4. For the same molecule, in assay [4], the “protection … viability EC50, MLP29” value is 5.35 nM and the “protection … viability EMAX, MLP29” value worked out at 58.6%.

(Values after patent US20210024639A1 (AGOMAB THERAPEUTICS, published 2021).)
